We go through five molecules from PMC6662305, “The basic helix‐loop‐helix transcription factor, OsPIL15, regulates grain size via directly targeting a purine permease gene OsPUP7 in rice”.

Series [1] concerns the target T1, OsPIL15-His (Oryza sativa L. cv. Nipponbare, UniProt Q0JNI9 1-637).
T1 sequence: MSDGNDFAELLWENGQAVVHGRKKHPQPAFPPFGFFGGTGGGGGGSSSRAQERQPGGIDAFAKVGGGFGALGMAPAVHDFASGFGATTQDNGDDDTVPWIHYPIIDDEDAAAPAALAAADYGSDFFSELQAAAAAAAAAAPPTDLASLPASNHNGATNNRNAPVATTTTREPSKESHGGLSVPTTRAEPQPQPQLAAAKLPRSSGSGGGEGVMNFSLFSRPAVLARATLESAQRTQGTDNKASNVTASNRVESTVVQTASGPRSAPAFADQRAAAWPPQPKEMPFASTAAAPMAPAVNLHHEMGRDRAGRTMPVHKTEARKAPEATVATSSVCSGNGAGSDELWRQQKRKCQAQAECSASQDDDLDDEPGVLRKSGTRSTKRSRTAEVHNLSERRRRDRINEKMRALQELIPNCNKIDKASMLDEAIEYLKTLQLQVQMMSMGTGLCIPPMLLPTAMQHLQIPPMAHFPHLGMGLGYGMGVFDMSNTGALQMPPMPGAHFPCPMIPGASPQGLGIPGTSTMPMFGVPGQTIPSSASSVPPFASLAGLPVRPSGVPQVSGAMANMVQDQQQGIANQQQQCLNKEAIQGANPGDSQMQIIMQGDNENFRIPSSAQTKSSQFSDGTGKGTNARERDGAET
In words: EMSA; EMSA: Beyotime kit binding buffer (composition, salt and pH not stated), 30 min at room temperature, 6% native polyacrylamide gel. Conditions: protein: recombinant; tags: His (pET28a); chain copies: 2; label: 3' biotin; blunt. (In general: In EMSA bound probe runs differently from free probe, usually more slowly.)

The target of series [2] is T1, OsPIL15-His. Briefly: EMSA; strong signal; EMSA: Beyotime kit binding buffer (composition, salt and pH not stated), 30 min at room temperature, 6% native polyacrylamide gel. Conditions: protein: recombinant; tags: His (pET28a); chain copies: 2; label: 3' biotin; blunt.

B1: N2-box probe (dsDNA)
DNA 1: TCTAATGACACGAGAGCAAGTCC
DNA 2: GGACTTGCTCTCGTGTCATTAGA
With B1, the binding result with OsPIL15-His [1] is on record as “no binding”.

B2: Mutant probe 1 (dsDNA)
DNA 1: AATACAGCCGCGACTATCTC
DNA 2: GAGATAGTCGCGGCTGTATT
B2: in the series with OsPIL15-His [1], the binding result is “no binding”.

B3: N1-box probe (dsDNA)
DNA 1: TCTAATGACACGCGAGCAAGTCC
DNA 2: GGACTTGCTCGCGTGTCATTAGA
For B3, the binding result with OsPIL15-His [2] is recorded as “binds”.

B4: G-box probe (dsDNA)
DNA 1: TCTAATGACACGTGAGCAAGTCC
DNA 2: GGACTTGCTCACGTGTCATTAGA
Take B4: in the series with OsPIL15-His [1], the binding result is “no binding”.

B5: Mutant probe 2 (dsDNA)
DNA 1: AATACAGGCAGCCCTATCTC
DNA 2: GAGATAGGGCTGCCTGTATT
Regarding B5, the binding result with OsPIL15-His [1] is listed as “no binding”.
